Measurements published in the supplement of paper PMC10567573.

B1: P2RY14 (parent)
chain: KKIFKSHLKSSRNSTSVKKKSSRN
B2: PPEF2 (parent)
chain: DHSGFISLDEFRQTWKLFSSHMNI

Variants of: B1
Test: protein stability index of a GFP-peptide fusion (GPS, HEK-293T) (PSI 1-6); higher = more stable
Conditions: c terminus: a fixed tail appended
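Further: lentivirally expressed fusions sorted by FACS into six bins by GFP to DsRed ratio, PSI derived from sequencing read proportions per bin multiplied by bin number.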

Protein stability index, by site and new letter:
K1: D 4.5 | C 3.51 | A 4.12

Variants of: B2
Test: as above
Conditions: c terminus: a fixed tail appended

Protein stability index, by site and new letter:
W15: D 2.3 | S 1.81 | T 2.58 | G 1.84 | L 1.88 | I 1.77 | M 2.79 | V 2.1 | Y 2.15 | A 1.67 | K 2.36 | R 1.62 | C 2.39 | Q 2.25 | E 1.96 | P 1.81 | F 2.07 | N 2.06 | H 1.76
L8: G 2.13 | E 1.85 | C 1.71 | I 2.24 | N 1.62 | K 1.97 | P 1.9 | Q 2.01 | F 2.59 | S 1.75 | T 2.09 | H 2.44 | A 1.62 | D 2.13 | R 1.93 | M 1.88 | V 2.74 | Y 1.87 | W 2.06
F11: N 1.51 | D 1.61 | P 1.85 | Y 2.19 | E 2.37 | H 1.95 | Q 1.56 | K 1.64 | S 1.68 | G 2.52 | V 2.07 | L 3.54 | R 2.01 | I 1.79 | W 1.64 | M 2.14 | C 1.94 | A 1.32 | T 1.74
T14: Y 1.49 | K 1.93 | A 2 | I 1.83 | F 1.83 | R 2.38 | V 1.93 | W 1.39 | P 2.17 | G 1.69 | H 2 | M 1.85 | L 1.66 | S 2.14 | Q 2.08 | D 1.71 | N 1.91 | C 2.88 | E 1.87
E10: D 1.71 | P 2.26 | Q 1.96 | N 2.85 | V 2.88 | R 1.6 | T 2.37 | S 1.35 | W 1.87 | I 1.58 | K 1.79 | F 1.72 | A 2.48 | G 1.26 | Y 1.82 | H 2.25 | C 1.95 | L 2.49 | M 2.26
S7: L 1.83 | I 2.44 | Y 1.97 | P 1.44 | N 2.06 | M 2.3 | W 2.08 | R 2.1 | K 1.69 | Q 1.79 | T 2.04
I24: K 1.79 | D 1.96 | G 1.98 | N 1.8 | Y 2.04 | E 1.99 | Q 1.78 | T 1.89 | A 1.96 | V 2.01 | C 1.55 | P 1.87 | S 1.58 | L 1.9 | F 1.9 | R 1.63 | M 2.04 | H 1.7 | W 2.35
H21: G 2.22 | S 1.86 | E 2.06 | Y 1.49 | C 2.9 | V 2.84 | M 1.49 | K 1.63 | P 2.11 | A 1.63 | I 2.54 | Q 1.06 | T 2.09 | F 2.27 | L 1.74 | D 1.91 | R 2.23 | N 2.01 | W 2.02
M22: E 2.19 | F 2.32 | V 1.51 | Y 2.21 | D 2.41 | H 1.61 | G 2.17 | K 2.1 | Q 1.88 | S 1.55 | R 1.91 | L 1.79 | A 1.88 | C 2.98 | W 2.49 | P 2.6 | T 1.6 | I 2.02 | N 1.62
R12: K 1.89 | D 2.06 | F 3.28 | W 2.39 | C 1.74 | G 2.79 | N 1.81 | V 2.88 | L 1.53 | S 2.04 | H 1.86 | Y 2.69 | A 1.87 | P 1.61 | E 1.62 | I 2.73 | Q 1.38 | T 2.98 | M 2.38
Q13: K 1.68 | A 1.73 | T 3.18 | G 1.96 | F 3.91 | M 3.2 | E 2.36 | D 1.61 | S 2.13 | N 2.65 | V 2.95 | H 1.87 | I 3.27 | P 2.35 | Y 1.45 | W 2.52 | R 2.03 | L 3.59
L17: H 1.66 | Y 2.03 | V 1.36 | D 2.27 | N 1.87 | W 1.29 | A 2.07 | M 2.63 | R 1.62 | K 1.81 | P 1.55 | G 1.5 | T 1.88 | E 2.11 | F 3.02 | C 1.59 | Q 1.58 | S 2 | I 3.24
N23: S 2.26 | L 2.3 | E 2.82 | P 1.84 | V 3.85 | Y 2.57 | I 2.18 | G 1.73 | W 2.08 | T 2.83 | D 1.69 | R 1.31 | F 3.35 | M 2.57 | Q 1.86 | H 2.16 | C 2.72 | K 1.96
F18: M 1.64 | K 2.21 | S 2.14 | Y 2.56 | I 2.51 | W 1.87 | G 2.48 | R 1.8 | H 1.55 | A 1.96 | N 2.12 | T 1.82 | C 2.02 | E 1.88 | P 1.96 | V 1.91 | L 1.46 | Q 1.72 | D 2.57
S20: Y 2.47 | E 2.43 | V 3 | M 2.81 | N 1.71 | A 2.14 | W 3.78 | R 2.16 | G 2.92 | H 1.63 | K 1.81 | P 1.96 | D 2.15 | I 2.75 | Q 1.83 | F 2.44 | T 1.85 | L 2.03
D9: M 2.67 | L 3.39 | I 3.32 | H 1.87 | Q 2.2 | Y 1.51 | C 2.73 | A 3.05 | G 2.82 | E 2.29 | T 2.24 | P 1.21 | N 1.51 | W 2.75 | F 2.48 | K 2.1 | S 1.84 | V 2.94 | R 1.92
K16: C 2.15 | Y 3.45 | V 2.6 | T 3.38 | I 3.37 | D 1.71 | W 3.62 | Q 1.74 | P 2.07 | S 1.81 | H 1.74 | A 1.88 | E 1.73 | G 1.32 | F 1.94 | N 1.69 | L 3.93 | R 2.02 | M 1.01
S19: I 2.22 | D 1.56 | T 2.55 | N 1.07 | H 1.88 | G 1.81 | M 1.78 | C 1.54 | K 1.85 | A 1.56 | V 2.26 | R 1.7 | W 1.87 | Q 2.02 | E 1.3 | P 1.82 | Y 1.7 | L 1.46 | F 2.32
